Data: US20040018971A1

The binders below were run against HLA-A*2401 (human) (assay: inhibition of 125I-labelled standard peptide binding to purified HLA, gel filtration). Details: not given.

relative binding ratio (IC50 of standard peptide / IC50 of test peptide) | Binder
0.018 | RFRELVSEF [HER2/neu peptide, position 968, 9 amino acids]
0.011 | RFTHQSDVW [HER2/neu peptide, position 898, 9 amino acids]
0.0032 | RMARDPQRF [HER2/neu peptide, position 978, 9 amino acids]
0.0002 | RFVVIQNEDL [HER2/neu peptide, position 985, 10 amino acids]

These binders were tested against HLA-A*2401 (human) (assay: inhibition of 125I probe peptide binding to purified HLA; IC50 standard/IC50 test). Details: not given.

relative binding ratio | Binder
-0.0003 | VFETLEEI [HER2/neu 399-406]
0.092 | VWSYGVTVWEL [HER2/neu 905-915]
-0.0003 | TMRRLLQETEL [HER2/neu 686-696]
0.0002 | TFGAKPYDGI [HER2/neu 917-926]
0.038 | TYLPTNASL [HER2/neu 63-71]
0.08 | VWSYGVTVW [HER2/neu 905-913]
-0.0003 | VFQNLQVI [HER2/neu 424-431]
0.32 | SYMPIWKF [HER2/neu 609-616]
8.9 | TYLPTNASLSF [HER2/neu 63-73]

Each binder was assayed against HLA-A*2401 (purified HLA class I molecule) (human) (assay: competition with 125I-labelled probe peptide for purified HLA, gel filtration). Details: not given.

Binder | relative binding ratio (IC50 of standard peptide / IC50 of test peptide)
VFETLEEI [HER2/neu peptide, position 399, 8 amino acids] | -0.0003
VFQNLQVI [HER2/neu peptide, position 424, 8 amino acids] | -0.0003
WMALESIL [HER2/neu peptide, position 888, 8 amino acids] | -0.0003
TYNTDTFESM [HER2/neu peptide, position 273, 10 amino acids] | 0.0074
TYLPTNASLSF [HER2/neu peptide, position 63, 11 amino acids] | 8.9
YVMAGVGSPY [HER2/neu peptide, position 772, 10 amino acids] | 0.0001

Results, then the binder that gave them:

relative binding ratio (IC50 of standard peptide / IC50 of test peptide) | Binder
0.0009 | YMIMVKCW [HER2/neu peptide, position 952, 8 amino acids]
1.8 | VYMIMVKCWMI [HER2/neu peptide, position 951, 11 amino acids]
0.08 | VWSYGVTVW [HER2/neu peptide, position 905, 9 amino acids]
0.092 | VWSYGVTVWEL [HER2/neu peptide, position 905, 11 amino acids]
0.022 | VYMIMVKCWM [HER2/neu peptide, position 951, 10 amino acids]
0.16 | VYMIMVKCW [HER2/neu peptide, position 951, 9 amino acids]
0.0011 | WMIDSECRPRF [HER2/neu peptide, position 959, 11 amino acids]

Same assay, conditions: scale: ratio

relative binding ratio | Binder
0.0009 | YMIMVKCW [HER2/neu peptide, position 952, 8 amino acids]
1.8 | VYMIMVKCWMI [HER2/neu peptide, position 951, 11 amino acids]
0.16 | VYMIMVKCW [HER2/neu peptide, position 951, 9 amino acids]
-0.0003 | WMALESIL [HER2/neu peptide, position 888, 8 amino acids]
0.0011 | WMIDSECRPRF [HER2/neu peptide, position 959, 11 amino acids]
